{"source": "patent EP4659810A1", "about": "(Université de Strasbourg, dated 2025)", "key": {"[1]": {"target": "VP1 on entire replicative virions of BKV genotype II (patient's isolate) (BK virus genotype II)", "assay": "cell-based or functional assay"}, "[2]": {"target": "T1, VP1 on entire replicative virions of BK virus genotype Ia (Dunlop strain; ATCC VR-837) (BK virus genotype Ia (Dunlop strain), UniProt P03088 1-362)", "T1 sequence": "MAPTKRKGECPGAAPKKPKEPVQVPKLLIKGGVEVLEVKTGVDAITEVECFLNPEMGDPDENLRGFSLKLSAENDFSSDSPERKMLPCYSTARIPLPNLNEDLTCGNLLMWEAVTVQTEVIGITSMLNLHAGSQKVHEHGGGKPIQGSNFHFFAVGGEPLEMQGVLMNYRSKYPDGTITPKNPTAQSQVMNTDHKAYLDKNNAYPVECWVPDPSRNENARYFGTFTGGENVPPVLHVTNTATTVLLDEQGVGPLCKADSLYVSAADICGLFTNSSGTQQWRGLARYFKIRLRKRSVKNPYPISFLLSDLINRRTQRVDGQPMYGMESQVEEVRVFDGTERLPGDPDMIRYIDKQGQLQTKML", "assay": "cell-based or functional assay"}, "[3]": {"target": "T2, VP1 pentamer of BKV genotype IV (BK virus genotype IV)", "T2 construct": "Obtained by gene synthesis and subcloned into pESPRIT002; also called VP1 pentamer from genotype IV", "assay": "BLI (OctetRED96e), biotinylated VP1 pentamer on streptavidin sensor, mAb 0 to 40 nM in solution"}, "[4]": {"target": "T3, VP1 on BKV genotype II pseudovirions (GBR-12; AB263920) (BK virus genotype II (GBR-12; AB263920), UniProt P14996 1-362)", "T3 chain": "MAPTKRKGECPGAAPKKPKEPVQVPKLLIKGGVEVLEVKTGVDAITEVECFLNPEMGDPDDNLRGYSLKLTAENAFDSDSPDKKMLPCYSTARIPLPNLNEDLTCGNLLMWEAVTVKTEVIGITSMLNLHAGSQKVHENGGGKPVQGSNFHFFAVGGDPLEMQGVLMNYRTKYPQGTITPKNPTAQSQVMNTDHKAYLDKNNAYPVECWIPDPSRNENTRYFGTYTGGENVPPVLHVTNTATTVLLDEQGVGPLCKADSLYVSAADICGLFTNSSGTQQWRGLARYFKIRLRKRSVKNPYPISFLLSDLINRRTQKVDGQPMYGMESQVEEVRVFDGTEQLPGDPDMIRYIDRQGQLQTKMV", "assay": "cell-based or functional assay"}, "[5]": {"target": "T4, VP1 on BKV genotype Ia pseudovirions (BK-D; JF894228) (BK virus genotype Ia (BK-D; JF894228), UniProt P03088 1-362)", "T4 sequence": "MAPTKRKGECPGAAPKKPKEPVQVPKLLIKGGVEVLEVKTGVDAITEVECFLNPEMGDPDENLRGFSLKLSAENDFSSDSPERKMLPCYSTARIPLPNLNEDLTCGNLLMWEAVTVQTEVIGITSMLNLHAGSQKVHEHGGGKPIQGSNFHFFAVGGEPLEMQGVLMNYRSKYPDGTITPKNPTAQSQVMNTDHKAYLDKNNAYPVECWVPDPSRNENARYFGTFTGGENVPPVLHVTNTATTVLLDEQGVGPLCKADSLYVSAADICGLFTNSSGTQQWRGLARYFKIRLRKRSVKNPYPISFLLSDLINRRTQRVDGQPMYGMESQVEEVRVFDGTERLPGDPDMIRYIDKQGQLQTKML", "assay": "cell-based or functional assay"}}, "data": [{"binder": "monoclonal antibody D10P4 (antibody, V domains shown) VH: EVQLLESGGGLVQPGGSLRLSCVASGFSIRGYAMNWVRQAPGKGLEWVSSLTSNGATTYYADSVKGRFTISRDNSKNTLFLQMHSLRGEDTAVYYCAKDRDAEWLGSEPFDPWGQGTLVTVSS VL: EIVLTQSPGTLSLSPGERATLSCRASQRVSSSYLAWYQHKFGQAPRLLIYGASRRATGIPDRFSGSGSGTDFTLTISRLEPEDFAVYYCQQYGSSPRSFGQGTKLEIK", "values": [{"measurement": "IC50, neutralization of fully replicative BKV virions (MRC5 cells)", "setting": "[1]", "result": 0.05, "unit": "ng/mL"}, {"measurement": "IC50, neutralization of fully replicative BKV virions (MRC5 cells)", "setting": "[2]", "result": 0.06, "unit": "ng/mL"}]}, {"binder": "monoclonal antibody E3P7 (antibody, V domains shown) VH: EVQLLESGGGLVQPGGSLRLSCAASGFSFRSYAMNWVRQAPGKGLEWVSSLNSAGVSTYYAESVKGRFTISRDNSKNTLYLQMNSLRGEDTAVYYCAKDRGVEWLGSEPIDPWGQGTLVTVSS VL: EIVLTQSPGTLSLSPGERATLSCRASQRVSSNYLAWYQHKPGQAPRLLIYRASSRATGIPDRFSGSGSGTDFTLTISRLEPEDFAVYYCQQYGSSPRSFGQGTKLEIK", "values": [{"measurement": "IC50, neutralization of fully replicative BKV virions (MRC5 cells)", "setting": "[1]", "result": 0.005, "unit": "ng/mL"}, {"measurement": "IC50, neutralization of fully replicative BKV virions (MRC5 cells)", "setting": "[2]", "result": 0.03, "unit": "ng/mL"}]}, {"binder": "monoclonal antibody D6P7 (antibody, V domains shown, Human mAb in human-IgG (heavy, kappa) expression plasmids, made in HEK293F) VH: EVQLLESGGGLVQPGGSLRLSCAASGFNFRSYGMNWVRQAPGKGLEWVSSLRSSGVTTYYADSVKGRFTISRDNSKNTLYLQMNSLRGEDTAVYYCAKDRDAEWLGSEPFDPWGQGTLVTVSS VL: EIVLTQSPGTLSLSPGERATLSCRASQSLSNSYLAWYQHKPGLAPRLLIYDASSRATGIPDRFSGSESGTDFTLTISRLEPEDFAVYYCQQYGSPPRSFGQGTKLEIK", "values": [{"measurement": "Kd", "setting": "[3]", "result": 32.1, "unit": "nM"}, {"measurement": "IC50, neutralization of BKV pseudovirions (luciferase, 293TT cells)", "setting": "[4]", "result": 0.2, "unit": "ng/mL"}]}, {"binder": "monoclonal antibody G5P4 (antibody, V domains shown, Human mAb in human-IgG (heavy, kappa) expression plasmids, made in HEK293F) VH: EVQLLESGGGLVQPGGSLRLSCVASGFSLRGYAMNWVRQAPGRGLEWVSSLTSNGATAYYADSVKGRFTISRDNFKNTLYLQMHSLRGEDTAVYYCARDRDAEWLGSEPFDPWGQGTMVTVSS VL: not shown", "values": [{"measurement": "Kd", "setting": "[3]", "result": 136, "unit": "nM"}, {"measurement": "IC50, neutralization of BKV pseudovirions (luciferase, 293TT cells)", "setting": "[5]", "result": 0.2, "unit": "ng/mL"}]}]}
